Measurements as given in article doi:10.1101/521815 (bioRxiv, 2019).
Substitutions are numbered along the chain they refer to. Numbers in names are those of the source.

B1: ABIN-1 UBAN (mouse, aa 463-532), GST tag cleaved (domain or fragment, UniProt Q9WUU8 463-532, looked up)
chain: LRKQELVTQNELLKQQVKIFEEDFQRERSDRERMNEEKEELKKQVEKLQAQVTLTNAQLKTLKEEEKAKE
B2: GST-NEMO UBAN (aa 250-339), wild type (domain or fragment, mouse, UniProt O88522 250-339, looked up)
chain: GMQLEDLRQQLQQAEEALVAKQELIDKLKEEAEQHKIVMETVPVLKAQADIYKADFQAERHAREKLVEKKEYLQEQLEQLQREFNKLKVG
B3: GST-NEMO UBAN (aa 250-339) A303E (domain or fragment, mouse, UniProt O88522 250-339, looked up)
chain: B2 chain with A54E
B4: GST-ABIN-1 UBAN (aa 463-532), wild type (domain or fragment, mouse, UniProt Q9WUU8 463-532, looked up)
chain: B1 chain
B5: GST-OPTN UBAN (aa 420-509) S473E (domain or fragment, human, UniProt Q96CV9 420-509, looked up)
chain: RAVLKELSEKLELAEKALASKQLQMDEMKQTIAKQEEDLETMTILRAQMEVYCEDFHAERAAREKIHEEKEQLALQLAVLLKENDAFEDG
B6: GST-OPTN UBAN (aa 420-509), wild type (domain or fragment, human, UniProt Q96CV9 420-509, looked up)
chain: B5 chain with E54S

Biological target: the molecule itself
Test: crystal structure
In the case of B1, the “stoichiometry N” value is reported as 2 chains in the oligomer.

What follows are binders tested against M1-linked tetra-ubiquitin (UniProt P0CG48 1-76; P0CG48 1-76; P0CG48 1-76; P0CG48 1-76) (assay: SPR).
Chain of M1-linked tetra-ubiquitin (P0CG48 1-304, one chain of several): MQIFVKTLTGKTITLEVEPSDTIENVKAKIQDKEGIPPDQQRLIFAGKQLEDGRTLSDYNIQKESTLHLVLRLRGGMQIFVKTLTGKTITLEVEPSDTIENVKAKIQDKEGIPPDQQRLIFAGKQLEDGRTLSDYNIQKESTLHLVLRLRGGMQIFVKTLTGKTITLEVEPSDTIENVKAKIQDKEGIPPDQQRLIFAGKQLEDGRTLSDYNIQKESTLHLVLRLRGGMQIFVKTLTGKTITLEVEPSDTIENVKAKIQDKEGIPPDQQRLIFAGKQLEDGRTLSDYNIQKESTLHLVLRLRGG
Work on B2 yielded a Kd of 562 nM.
Work on B3 yielded a Kd of 362 nM.
For B4, the Kd was 972 nM.
With B5 the Kd was 508 nM.
Binder B6 has a Kd of 916 nM.
